Assay results reported in patent publication US20130171217A1, “ENZYMATIC PERACID GENERATION FOR USE IN SKIN CARE PRODUCTS” (E I DU PONT DE NEMOURS AND COMPANY, priority 2010, published 2013).

How the values were obtained:
[1] = One-step enzymatic PAA generation, HPLC peracetic acid assay; assay type: biochemical
Procedure: Determination of the peracetic acid (PAA) concentration in the reaction mixtures was performed according to the method described by Pinkernell et al., Anal. Chem. 1997, 69(17):3623-3627. Aliquots (0.040 mL) of the reaction mixture were removed at predetermined times and mixed with 0.960 mL of 5 mM phosphoric acid in water; adjustment of the pH of the diluted sample to less than pH 4 immediately terminated the reaction. The resulting solution was filtered using an ULTRAFREE® MC-filter unit (30,000 Normal Molecular Weight Limit (NMWL), Millipore cat #UFC3LKT 00) by centrifugation for 2 min at 12,000 rpm. An aliquot (0.100 mL) of the resulting filtrate was transferred to 1.5-mL screw cap HPLC vial (Agilent Technologies, Palo Alto, Calif.; #5182-0715) containing 0.300 mL of deionized water, then 0.100 mL of 20 mM MTS (methyl-p-tolyl-sulfide) in acetonitrile was added, the vials capped, and the contents briefly mixed prior to a 10 min incubation at ca. 25° C. in the absence of light. To each vial was then added 0.400 mL of acetonitrile and 0.100 mL of a solution of triphenylphosphine (TPP, 40 mM) in acetonitrile, the vials re-capped, and the resulting solution mixed and incubated at ca. 25° C. for 30 min in the absence of light. To each vial was then added 0.100 mL of 10 mM N,N-diethyl-m-toluamide (DEET; HPLC external standard) and the resulting solution analyzed by HPLC (Waters Alliance 2695, Waters Corporation; MA).
Supelco Discovery C8 column (10 cm×4.0-mm, 5 μm) (cat. #569422-U) w/precolumn Supelco Supelguard Discovery C8 (Sigma-Aldrich; cat #59590-U); 10 microliter injection volume; gradient method with CH3CN (Sigma-Aldrich; #270717) and deionized water at 1.0 mL/min and ambient temperature:
The first method (referred to herein as the “one-step approach”) comprises combining different amounts of at least one CE-7 perhydrolase with triacetin (an example of a suitable ester substrate) and hydrogen peroxide to generate peracetic acid. Hair bundles were inserted into “one step approach” solutions for 15 min immediately after mixing the enzyme solution with triacetin solution (final concentration was about 100 mM) and H2O2 solution (final concentration was about 250 mM). The hair samples were rinsed with water and dried. The method was repeated for another 15 times (total application was 16 times). In one experiment, two perhydrolase enzymes were used, i.e., untargeted T. maritima variant C277S (“C277S”; “PAH”; SEQ ID NO: 293) and “C277S-HC263” (SEQ ID NO: 288). The concentration of peracetic acid in solution after 15 min was evaluated by HPLC.

[2] = Perhydrolase activity of targeted hydrolases, ABTS assay; assay type: biochemical
Procedure: The ABTS assay was performed as follows: hair samples treated as described above were transferred to new 2-mL microcentrifuge tubes (Eppendorf Protein LoBind; Eppendorf North America, Hauppauge, N.Y.) To each tube was added 480 μL of PAH buffer ([…]), 14 μL of 39% hydrogen peroxide (Sigma 3410), and 6 μL triacetin (Sigma-Aldrich W200700). The perhydrolase reaction was allowed to proceed for 10 minutes at room temperature (˜22-25° C.). The reaction was stopped by diluting aliquots 10×, 100× and 1000× with 10 mM phosphoric acid. For detection 50 μL of 1 M acetic acid, 50 μL of 40 mg/mL potassium iodide, and 50 μL of 4 mM ABTS (2,2′-azino-bis(3-ethylbenzthiazoline-6-sulphonic acid; Sigma, St Louis, Mo.) were added to 50 μL of the above dilutions. Color was allowed to develop for 10 minutes and read in a spectrophotometer at 405 nm. Values from no-enzyme controls were subtracted to yield values attributable only to enzyme activity. A standard curve of OD 405 nm vs PAA concentration in ppm yielded a conversion factor of 8.75, such that an OD 405 nm of 1.0 corresponded to approximately 8.75 ppm PAA. This value was then multiplied by the appropriate dilution to arrive at the PAA concentration in the perhydrolase reaction.
The perhydrolase activity of the enzymes targeted to hair with a variety of targeting domains produced as described in Example 32 was measured with the ABTS assay.

B1: C277S-HC263: C277S variant of Thermotoga maritima perhydrolase fused via a flexible linker to hair-binding domain HC263 (protein)
chain: MAFFDLPLEELKKYRPERYEEKDFDEFWEETLAESEKFPLDPVFERMESHLKTVEAYDVTFSGYRGQRIKGWLLVPKLEEEKLPCVVQYIGYNGGRGFPHDWLFWPSMGYICFVMDTRGQGSGWLKGDTPDYPEGPVDPQYPGFMTRGILDPRTYYYRRVFTDAVRAVEAAASFPQVDQERIVIAGGSQGGGIALAVSALSKKAKALLCDVPFLCHFRRAVQLVDTHPYAEITNFLKTHRDKEEIVFRTLSYFDGVNFAARAKIPALFSVGLMDNISPPSTVFAAYNYYAGPKEIRIYPYNNHEGGGSFQAVEQVKFLKKLFEKGGPGSGGAGSPGSAGGPGSPSAQSQLPDKHSGLHERAPQRYGPEPEPEPEPIPEPPKEAPVVIEKPKPKPKPKPKPPAHDHKNQKETHQRHAAGSGGGGSPHHHHHH
[1]; 0.05 mg/mL enzyme
  PAA generated: about 0.2 wt %
[1]; 0.05 mg/mL enzyme, urea 0 wt %, after 15 min
  PAA: 1983 ppm
[1]; 0.25 mg/mL enzyme, urea 0 wt %, after 15 min
  PAA: 3948 ppm
[1]; 0.5 mg/mL enzyme, urea 0 wt %, ~100 mM triacetin, ~250 mM H2O2, after 15 min
  PAA: 4132 ppm
[1]; same weight basis, under testing condition
  perhydrolase activity lower than C277S: 2-3 times
[2]; 1 m Na acetate at pH 5.5 instead of triacetin
  Specific perhydrolase activity: The perhydrolase activity of the fusions of the Pseudomonas fluorescens hydrolase was assayed using 1 m Na acetate at pH 5.5 instead of triacetin at pH 7.5 Targeted Perhydrolases HC1121 (C277S-HC263; SEQ ID NO: 288) had no detectable perhydrolase activity with acetate as a substrate.

B2: SEQ ID NO: 323: S54V variant of the aryl esterase from Mycobacterium smegmatis fused to hair binding domain HC263 via a flexible linker (protein)
chain: MAKRILCFGDSLTWGWVPVEDGAPTERFAPDVRWTGVLAQQLGADFEVIEEGLVARTTNIDDPTDPRLNGASYLPSCLATHLPLDLVIIMLGTNDTKAYFRRTPLDIALGMSVLVTQVLTSAGGVGTTYPAPKVLVVSPPPLAPMPHPWFQLIFEGGEQKTTELARVYSALASFMKVPFFDAGSVISTDGVDGIHFTEANNRDLGVALAEQVRSLLGPGSGGAGSPGSAGGPGSPSAQSQLPDKHSGLHERAPQRYGPEPEPEPEPIPEPPKEAPVVIEKPKPKPKPKPKPPAHDHKNQKETHQRHAAGSGGGGSPHHHHHH
[2]; triacetin at pH 7.5
  Specific perhydrolase activity: 270 µmol/mg/min

B3: C277S: non-targeted C277S variant of the Thermotoga maritima perhydrolase, un-targeted control (protein, listed as Thermotoga maritima)
chain: MAFFDLPLEELKKYRPERYEEKDFDEFWEETLAESEKFPLDPVFERMESHLKTVEAYDVTFSGYRGQRIKGWLLVPKLEEEKLPCVVQYIGYNGGRGFPHDWLFWPSMGYICFVMDTRGQGSGWLKGDTPDYPEGPVDPQYPGFMTRGILDPRTYYYRRVFTDAVRAVEAAASFPQVDQERIVIAGGSQGGGIALAVSALSKKAKALLCDVPFLCHFRRAVQLVDTHPYAEITNFLKTHRDKEEIVFRTLSYFDGVNFAARAKIPALFSVGLMDNISPPSTVFAAYNYYAGPKEIRIYPYNNHEGGGSFQAVEQVKFLKKLFEKG
[1]; 0.05 mg/mL enzyme, urea 10 wt %, after 15 min
  PAA: 6448 ppm
[1]; 0.25 mg/mL enzyme, urea 10 wt %, after 15 min
  PAA: 14053 ppm
[1]; 0.5 mg/mL enzyme, urea 10 wt %, after 15 min
  PAA: 13656 ppm
